Experiment [1] addresses full length PfCSP (NF54 strain) (Plasmodium falciparum (NF54 strain)) (UniProt P19597).
The target of experiment [2] is minimal NANP3 peptide. Put plainly: SPR. As to conditions: parent: est. 2.1e-6 M; read off a plot.

Sequence of full length PfCSP (NF54 strain) (Plasmodium falciparum (NF54 strain)) (P19597 19-374): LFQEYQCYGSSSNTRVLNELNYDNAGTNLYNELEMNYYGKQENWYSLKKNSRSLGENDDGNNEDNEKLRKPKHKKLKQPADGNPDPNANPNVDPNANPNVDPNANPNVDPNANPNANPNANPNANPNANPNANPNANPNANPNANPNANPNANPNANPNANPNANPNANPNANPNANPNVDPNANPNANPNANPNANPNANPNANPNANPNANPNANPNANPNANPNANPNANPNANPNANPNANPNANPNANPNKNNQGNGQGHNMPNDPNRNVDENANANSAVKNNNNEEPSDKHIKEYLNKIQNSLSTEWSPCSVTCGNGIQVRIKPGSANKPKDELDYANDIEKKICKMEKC

Take 1210_H.K56_Nrev IgG (antibody): in experiment [1], the other came to 0.14 µg/mL.

Take 1210_H.N31_Srev IgG (antibody): in experiment [1], the other came out at 0.14 µg/mL.

In turn, 1210_H.V50_Imut IgG (antibody) returned an other in experiment [1] of 0.16 µg/mL.

In the case of “1210_NS IgG (1210_H.K56_Nrev_K.N93_Srev) (antibody)”, the other in experiment [1] was 0.17 µg/mL.

Substance 2163 IgG (germline antibody 2163) returned an other in experiment [1] of 0.2 µg/mL.

One may read the Kd as the constant that tells how readily two partners part at equilibrium. Regarding “2163 IgG (germline antibody 2163) H:N56K”, the Kd in experiment [2] was 2600 nM.

Take “2163 IgG (germline antibody 2163) H:N56K; K:S93N”: the dissociation constant Kd in experiment [2] was 2600 nM.

In the case of “2163 IgG (germline antibody 2163) H:S31N”, the dissociation constant (Kd) in experiment [2] amounted to 1500 nM.

For the substance “2163 IgG (germline antibody 2163) H:V50I”, the Kd in experiment [2] turned out to be 130 nM.

Take 2163_H.S31_Nmut IgG (antibody): the other in experiment [1] came to 0.12 µg/mL.

Substance 2163_H.V50_Imut IgG (antibody) registered an other in experiment [1] of 0.16 µg/mL.

The substance “2163_KN IgG (2163_H.N56_Kmut_K.S93_Nmut) (antibody)” yielded an other in experiment [1] of 0.21 µg/mL.

For the origin of these results see article PMC6420115.
